assay: soluble fraction after stress (log2 fold change); higher = more stays soluble; pooled small domains, quantitative proteomics; details: stress: 50 degC
Procedure, shortened: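 The stress applied to every library was 50°C. These custom libraries of small protein domains were pooled and measured at high throughput with quantitative proteomics as the read-out. Aggregation propensity is expressed as the base-two logarithm of the fold change in how much of each protein remains soluble. The higher the value, the more of that protein stays in solution.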

Compared with “HMNNVDQLIEQYKTLPGGLLPLLHAIKHALGYIPESTVGSIAKGFNLSRAEVHGVISFYHDFNTQP”, “HMEEDPVIAAQRFLNIFRQLHIFTAAKRKEFDELLLKQPASVKGMFASLPGGSVLQEYVNNLEQNAG” is lower in “soluble fraction (log2)” value: 0.0707 for the first, -0.137 for the second.

Compared with “HMQPASPELNNQEKKVLQALPENEVIHIDELSDKIQIPVGELLTVLLSLEMKETVIQEPGKFFRRR”, “HMSLAISGRNQLHGIIEEVRSDGLLSQIYLRVGDQVLTAVITRDAVAELKLKRGDTAVAIMKSTEVMIARE” is higher in “soluble fraction (log2)” value: -1.28 for the first, 0.147 for the second.

First: HMSAPAKKPKIKVDLSKVHAGTIVRHKGYGLGQVKGIDGAIIVVTFDGVDKKFQFPGGFENGFLFLTED
Second: HMSERVVEIDPSQLRPGLFIRLPSGWMNHPFLFNQFRINSAEQVEIIQKLGLKTVQYLPERSSTQALPRA
The “soluble fraction (log2)” value of the first is higher: -0.0311 for the first, -0.499 for the second.

Going from “HMRRGFGYVRKLPSGRWQASFVGPDLARHSAPHTFETKGDAEGWLGRRQADVVAGEWRPPVP” to “HMESGLPLPRFVSLGADEVNLRTGPGLRYPVAWVFVRKALPVEIVAEFEQWRRVRDFEGAEGWVHKAML”, the “soluble fraction (log2)” value falls from 0.205 to -0.36.

First: HMVNDQSIYASEGYVHIRSGKPVSLRIYTILGALYRHEERLVGDHVIALPRGLYIVVLNHTAKKIMV
Second: HMHSKQRDAIFENLRSRKDHPTAEEIYLSLKPAMPAISLATVYRNLAQLENEGLILRLGSGGSARYDGDT
The “soluble fraction (log2)” value of the first is lower: -1.01 for the first, -0.441 for the second.

First: HMFNTWLGEIRSNTGANVRSGPDASAAIVDARPNETVVRVIGQSGNWLQIGDKQFVAQSLVAP
Second: HMINFSKNIISDTTSIKEAIEILNIISGRDNHILFVLNDKRQLIGTLSDGDVRRGMLASKTISQSVTEVM
The “soluble fraction (log2)” value of the first is higher: -0.0505 for the first, -0.351 for the second.

First: HMKPVSEMDNMEWVREQYFQNMIYEIGEWVKDKKTGIVGEIVKRGTNYVTIVQEDFSLHKIWLEDLETTE
Second: HMKPEQIELTFSGTTAMRLDKFLAENQPGLSRAKLQAIISSGSVEVNGKVITKQAFKLDPGDLVKALIPE
The “soluble fraction (log2)” value of the first is lower: -0.325 for the first, 0.0295 for the second.

First: HMRKSLGEIVFDRMERAIKSGAYSPDERLPTELDLAAEFEVSRPVIRDALKRLRERGLIYSRQGAGSFVRA
Second: HMLNDKLQTLFSLFPAVDKDLKKKGVTRQILWEQYKRNHPDGVGRSQFNYYYAQWKDQVNPT
The “soluble fraction (log2)” value of the first is higher: -0.499 for the first, -1.47 for the second.

First: HMNIVKGDTTANVRVVQQRLYNLGYYTYKVDGIWGTRTKTAVKKFQKDKGLVADGIVGAKTEKALGITLT
Second: HMDQTIFFGQQKAINNLSTDAGLSATELDEYLKKRYKRPLYQLTQAEGAEIIKGFQDGALSRSSILDYTK
The “soluble fraction (log2)” value of the first is lower: -1.29 for the first, -0.00165 for the second.

“HMGTEITEQRAKEIALENAKVAESDVTAMRVKKEMDDGVWRYDVEFYVQNKEYDYEINAMDGTILSVDYD” and “HMEDEAVMQLPLSELKGLSPELLAILNGAGYEKLKDVLDLEREDIERIPGMTPERNEQLVAFLAELTE” are within 0.2 log units of each other in “soluble fraction (log2)” value: -0.04 for the first, 0.0689 for the second.

Going from “HMVLLGAAIRELRIQKGITIEELAEMSGLSTGLISKIERDLGNPSISSLRKISRALGVPTAFFFA” to “HMSFPQVELNTNKGRIVLELNSEKAPKTVANFLEYVRDGFYDGVIFHRVIDGFMIQGGGFDENFKEKA”, the “soluble fraction (log2)” value rises from -3.07 to -0.229.

Compared with “HMRQIMIIVLKSTATKEDSLLFKNKLEQEYGVKVNEWTGVESTVLGLIGDTTKIDIDYISAQDIVESVKRV”, “HMSLQNTMANFAGGVLVLFLKPFKAGDYIVTKDGEGTVASIGLVYTTLLTIENKRIVIPNSSISNSPITN” is lower in “soluble fraction (log2)” value: 0.252 for the first, 0.0055 for the second.

Compared with “HMEAVGLTPRQGDVLALLLQGKPNKLIARDLNLSVETVKDHVAAVLRALGVSTRTQAVLAVSQMQQQAAQ”, “HMNEFGIPDKKLQDIETRVNSMSLEQLNAARSMLIDEQEALNSSTGSASSGRLKEIAAELSTIQKALIAIA” is higher in “soluble fraction (log2)” value: -0.248 for the first, 0.163 for the second.

Going from “HMSPIKAGDLVKITGTKYYRGQTIPSWVKAKNWFVHSVSGDRAVINKSEDGKNAIMSPVKVSNLALVT” to “HMGRFAETVEHIVAAQLARRQGIPTMEQFASFFNVSRATFQRRLGEEGETLEQIKQRVRLRLALELLHP”, the “soluble fraction (log2)” value falls from -0.0334 to -2.86.

First: HMGMTNRIKELRKAKGYRQEDLAAALGVSRQTIIAVENNKYNPTLELAMKLARHLQTTVEELFQL
Second: HMELEDTYTKNLDASLARLDEYQASKGLTDEQVDEVINSLIADAENIIMGVFTPELIDSKLKAMNYDQDV
The “soluble fraction (log2)” value of the first is lower: -0.758 for the first, 0.156 for the second.

First: HMTYPGSIALVNPKHEAFVQHYVATSGSRGQAAKLAGVTTTTARNLLQDVEATARIRYLNAQQFQ
Second: HMQEDSNISFVKIHVDADSGMAHKKLSKLSLPTGFLIVVIIRGEENIIPNGETEVLPGDLLVAAAREFEN
The “soluble fraction (log2)” value of the first is higher: -0.107 for the first, -0.405 for the second.

“HMEGFSAGQFVRASVDNTAFYLKRPKGDAVADKLLRRGASMKVISASGDYLKVELDSGEVGFVPPVMVE” and “HMAFRIGGFVQEGSVVRQQDGGTVRFEVTDTAHSVPVTYKGSLPDLFKEGKGVVAQGKLMNGTFVADQVLA” are within 0.2 log units of each other in “soluble fraction (log2)” value: 0.05 for the first, -0.0129 for the second.

“HMTANDKRNALYRKIEVGRRQLPAMDEVAFRQLLAAEFGVESRKDMSVGQLSRLVNILAEKGAVF” and “HMSKDQKKFFIEIVSIRGFGSQIGISILNKLSIPQIINAIKTQNKKEISSIPGIGQKMTERLILELNNKFK” are within 0.2 log units of each other in “soluble fraction (log2)” value: -0.203 for the first, -0.0747 for the second.

“HMRGRFGNAAPARNLGDHPQGGAINVKAGRYGPYVSWGKVNATLPKDSDPEKVTLEEAVALIAAKQSGQG” and “HMAFGTGTVTASSLRVREDASTSAATLDTLSKGSKVSVLADEQDGFYKVQIGEQVGYMSAEYLDVTE” are within 0.2 log units of each other in “soluble fraction (log2)” value: -0.103 for the first, 0.0904 for the second.

Source: the domain aggregation screens of Martell et al. (2025)
